Earlier results as cited in paper PMC7609432.
Read-outs that look alike come from different tables or passages of the source.

What was measured:
[1] = target: IQGAP1 (Danio rerio); test: SW-FCCS
[2] = target: IQGAP1 (Danio rerio); test: SW-FCCS; remark: listed apart in the source

Sequence of IQGAP1 (Danio rerio) (P46940 2-1657): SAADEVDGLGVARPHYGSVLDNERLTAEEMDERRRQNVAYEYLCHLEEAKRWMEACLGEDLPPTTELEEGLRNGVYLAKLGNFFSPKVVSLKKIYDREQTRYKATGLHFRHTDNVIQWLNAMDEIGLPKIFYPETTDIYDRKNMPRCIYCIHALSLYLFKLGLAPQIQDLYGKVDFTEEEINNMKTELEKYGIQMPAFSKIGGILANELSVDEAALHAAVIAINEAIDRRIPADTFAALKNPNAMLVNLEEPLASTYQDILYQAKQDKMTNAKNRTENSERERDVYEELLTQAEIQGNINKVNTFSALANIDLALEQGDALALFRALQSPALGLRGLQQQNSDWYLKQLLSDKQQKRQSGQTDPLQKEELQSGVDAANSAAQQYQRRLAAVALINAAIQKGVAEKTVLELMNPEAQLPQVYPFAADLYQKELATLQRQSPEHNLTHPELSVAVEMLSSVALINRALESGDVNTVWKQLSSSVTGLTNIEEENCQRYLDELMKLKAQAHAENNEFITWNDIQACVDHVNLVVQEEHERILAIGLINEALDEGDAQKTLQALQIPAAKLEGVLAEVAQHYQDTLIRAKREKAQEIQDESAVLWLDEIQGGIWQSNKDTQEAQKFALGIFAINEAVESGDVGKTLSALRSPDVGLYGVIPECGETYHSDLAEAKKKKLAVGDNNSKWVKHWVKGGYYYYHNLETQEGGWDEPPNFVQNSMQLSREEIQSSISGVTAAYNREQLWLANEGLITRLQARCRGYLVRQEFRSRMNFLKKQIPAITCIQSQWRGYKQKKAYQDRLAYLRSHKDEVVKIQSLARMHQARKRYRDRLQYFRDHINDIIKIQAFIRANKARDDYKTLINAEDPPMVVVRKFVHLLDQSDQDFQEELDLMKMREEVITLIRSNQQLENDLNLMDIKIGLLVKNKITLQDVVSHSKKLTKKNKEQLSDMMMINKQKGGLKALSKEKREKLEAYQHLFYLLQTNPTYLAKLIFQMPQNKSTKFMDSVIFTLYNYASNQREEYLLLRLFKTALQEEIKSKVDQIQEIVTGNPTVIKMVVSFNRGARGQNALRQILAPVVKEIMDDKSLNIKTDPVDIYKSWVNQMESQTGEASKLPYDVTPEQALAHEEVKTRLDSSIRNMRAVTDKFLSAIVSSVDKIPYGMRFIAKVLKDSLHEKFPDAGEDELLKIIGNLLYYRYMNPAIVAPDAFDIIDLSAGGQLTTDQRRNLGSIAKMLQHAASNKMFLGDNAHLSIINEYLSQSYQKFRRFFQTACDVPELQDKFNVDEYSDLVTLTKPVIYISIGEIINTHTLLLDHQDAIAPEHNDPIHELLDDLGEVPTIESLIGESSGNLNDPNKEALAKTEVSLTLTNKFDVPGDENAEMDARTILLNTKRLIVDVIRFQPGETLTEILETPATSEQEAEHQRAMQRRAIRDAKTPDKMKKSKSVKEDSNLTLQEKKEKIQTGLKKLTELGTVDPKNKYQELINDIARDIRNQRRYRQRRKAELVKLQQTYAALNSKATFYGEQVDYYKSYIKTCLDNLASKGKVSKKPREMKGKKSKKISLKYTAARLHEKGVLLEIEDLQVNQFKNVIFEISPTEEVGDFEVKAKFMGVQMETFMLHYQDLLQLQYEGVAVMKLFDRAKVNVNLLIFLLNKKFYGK

- Kd [1]: > 1500 nM
- Kd [2]: 105 nM
Substance: Cdc42 (from UniProt P60953)
